Numbering of substitutions follows the chain as printed.
B1: h1721-003 (antibody, V domains shown)
VH: EVTLKESGPVLVKPTETLTLTCTVSGFSLSSYGVNWIRQPPGKALEWLGVIWGDGSTNYHSALISRLTISKDTSKSQVVLTLTNMDPVDTATYYCAKNYFYGSRYGYAMDSWGQGTTVTVSS
VL: DIQMTQSPSSLSASVGDRVTITCRASENIYSSLAWYQQKPGKAPKLLIYNAKTLIEGVPSRFSGSGSGTDFTLTISSLQPEDFATYYCQHHYGTPYTFGGGTKVEIK
notes: Only variable regions are tied to this name; also called M721-003
B2: h1718-012 (antibody, V domains shown)
VH: EVQLVQSGAEVKKPGASVKVSCKASGYTITDYNMNWVRQAPGQRLEWIGVINPSYGITDYNQNFKDRVTITVDTSASTAYMELSSLRSEDTAVYYCAIQLRLPGYFDVWGQGTTVTVSS
VL: DIQMTQSPSSLSASVGDRVTITCKASQDINQYLNWFQQKPGKAPKTLIYRANRLVDGVPSRFSGSGSGQDYTLTISSLQPEDFATYYCLKYDEFPYTFGGGTKVEIK
notes: Only variable regions are tied to this name
B3: h1719-010 (antibody, V domains shown)
VH: EVTLKESGPVLVKPTETLTLTCTVSGFSLSSYGVSWVRQPPGKGLEWLGVIWGDGNTNYHSVLISRLTISKDTSKSQVVLTLTNMDPVDTATYYCAKQNYYGSRYGYPIDYWGQGTTVTVSS
VL: DIQMTQSPSSVSASVGDRVTITCKATQDVGTAVAWYQQKPGKAPKLLIYWASTRHTGVPSRFSGSGSGTDFTLTISSLQPEDFATYYCQQYGSSVLTFGGGTKVEIK
notes: as for B2
B4: ch1722 (antibody, human IgG4 S228P, kappa, V domains shown)
VH: QVQLQQPGAELVKPGTSVKLSCKASGNTFIDYWMHWVKQRPGQGLEWIGMLHPNSGTTSFNEKFKIKTTLTIDKSSSTAYMQLSSLTSEDSAIYYCASDYSGPFAYWGQGTLVTVSA
VL: QIVLTQSPGIMSAFPGEKVTMTCSASSSVNYIHWYQQKSGTSPKRWIFDTSKLASGVPARFSGSGSGTSYSLTISSMEAEDAATYYCQQWRSNPLTFGAGTKLELKR
notes: also called chi722; chimeric antibody corresponding to m1722
B5: h1722-010 (antibody, V domains shown)
VH: EVQLVQSGAEVKKPGSSVKVSCKASGGTFSDYWMHWVRQAPGQGLEWIGMLHPNSGTTSFNEKFKIRVTITADKSTSTAYMELSSLRSEDTAVYYCASDYSGPFAYWGQGTLVTVSS
VL: DIQLTQSPSSLSASVGDRVTITCSASSSVNYIHWYQQKPGKAPKRWIFDTSKLASGVPSRFSGSGSGTDYTLTISSLQPEDFATYYCQQWRSNPLTFGQGTKLEIK
notes: Only variable regions are tied to this name; also called M722-010
B6: h1722-018 (antibody, V domains shown)
VH: B5 VH with N54Q
VL: B5 VL
B7: h1722-017 (antibody, V domains shown)
VH: B5 VH with N54K
VL: B5 VL
B8: h1722-006 (antibody, V domains shown)
VH: B5 VH
VL: B5 VL with L4M, F48Y, Y70F
notes: as for B2
B9: ch1719 (antibody, human IgG4 S228P, kappa, V domains shown)
VH: QVQLKESGPGLVAPSQSLSITCTVSGFSLISYGVSWVRQPPGKGLEWLGVIWGDGNTNYHSVLISRLSIRKDDSKSQVFLKLNSLQTDDTATYYCAKNNYYGSRYGYPMDYWGQGTSVTVSS
VL: DIVMTQSHKFMSTSVGDRVSITCKATQDVGTAVAWYQQKPGHSPKLLIYWASTRHTGVPERFTGSGSGTDFTLTIDNVQSEDLADYFCQQYGSSVLTFGAGTKVELRR
notes: also called chimeric antibody corresponding to m1719
B10: ch1721 (antibody, human IgG4 S228P, kappa, V domains shown)
VH: B9 VH with S35N, N56S, V62A, R70S, K81N, N99Y, Y100F, P108A, Y111S, T116I
VL: DIQMTQSPASLSAAVGETVTITCRASENIYSSLAWYQQKQGKSPQLLVYNAKTLIETVASRFSGSGSGTQYSLKINSLQPEDFGSFYCQHHYGTPYTFGGGTKLEIKR
notes: also called chimeric antibody corresponding to m1721
B11: ch1720 (antibody, human IgG4 S228P, kappa, V domains shown)
VH: EFQLQQSGPELVKPGASVKISCKASAYSLTDYNMNWVKQSNGKSLEWIGVINPSYGISSYNQKFKGKATLTVDQSSSTAYMHLNSLTSEDSAVYYCARQLRLPGYFDVWGTGTTVTVSS
VL: DIKMTQSPSSKNASLGERVTITCKASQDINSYLNWFQQKPGKSPKTLIYRASRLVDGVPSRFSGSGSGQDYSLTISSLEYEDMGIYYCLKYDEFPYTFGGGTKLEIKR
notes: also called chimeric antibody corresponding to m1720
B12: ch1718 (antibody, human IgG4 S228P, kappa, V domains shown)
VH: B11 VH with L29I, S58T, S59D, K63N, G66D, H82Q, R98I, T116I
VL: B11 VL with K11M, N12Y, S31N, S52N, L104V
notes: also called chimeric antibody corresponding to m1718

Assays:
[1] = target: T1, Full-length human CD96 on CHO-S cells (human, UniProt P40200 22-585); experiment: cell ELISA, fixed CD96-overexpressing CHO-S cells
T1 construct: also called CD96-CHOs; hCD96-CHOs
T1 sequence: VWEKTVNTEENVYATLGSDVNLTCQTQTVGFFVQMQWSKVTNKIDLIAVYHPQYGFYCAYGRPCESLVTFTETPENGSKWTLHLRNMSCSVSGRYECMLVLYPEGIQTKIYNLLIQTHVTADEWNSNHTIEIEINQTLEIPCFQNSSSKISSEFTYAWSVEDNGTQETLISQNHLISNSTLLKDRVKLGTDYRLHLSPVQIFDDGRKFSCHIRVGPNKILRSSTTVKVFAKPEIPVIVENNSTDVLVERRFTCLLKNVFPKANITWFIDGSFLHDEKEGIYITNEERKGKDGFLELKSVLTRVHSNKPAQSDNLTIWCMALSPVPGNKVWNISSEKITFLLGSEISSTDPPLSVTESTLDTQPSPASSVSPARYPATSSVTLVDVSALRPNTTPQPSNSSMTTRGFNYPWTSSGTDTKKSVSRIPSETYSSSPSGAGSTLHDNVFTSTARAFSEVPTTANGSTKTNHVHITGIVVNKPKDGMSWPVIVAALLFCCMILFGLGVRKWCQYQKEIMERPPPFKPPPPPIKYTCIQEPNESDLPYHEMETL
Protocol: The binding capacity of the anti-CD96 antibody was tested by binding experiments of the antibody to human CD96 protein overexpressing CHO-S cells. The full-length CD96 plasmid was transfected into CHO-S cells by electrotransfection, and cells were then screened for two weeks under pressure for the detection of the expression of CD96. After the over-expressing cells were fixed at the bottom of the 96-well plate, the density of the signal after adding the antibody was used to judge the binding activity of the antibody to CD96 overexpressing CHO-S cells. The specific experimental method is as follows:
The cells were seeded at a density of 9×10⁴/100 μL/well in a 96-well plate and cultured overnight. After aspirating the supernatant, the plate was washed once with PBS, subsequently, 100 μl/well immunostaining fixation solution (Biyuntian, P0098) was added and fixed for one hour at room temperature, and the plate was washed three times with PBS. Once the liquid was discarded, 250 μl/well of 5% skim milk (BD, 232100) blocking solution diluted with PBS was added, and the plate was blocked in an incubator at 37° C. for 2.5 hours. After blocking, the blocking solution was discarded, the plate was washed 4 times with PBST buffer (pH 7.4 PBS containing 0.05% tween-20), followed by diluting 50 μl/well of different concentrations of the antibodies (hybridoma purification antibody or humanized antibody) to be tested the plate was incubated in an incubator at 37° C. for 2 hours. After incubation, the plate was wash 4 times with PBST. […] After washing the plate 4 times with PBST, 50 μl/well of TMB chromogenic substrate (KPL, Cat No. 52-00-03) was added, the plate was incubated at room temperature for 10-25 min, followed by adding 50 μl/well of 1M H₂SO₄ to stop the reaction. The absorption value was read at 450 nm with a NOVOStar microplate reader, and the EC50 value of the CD96 antibodies to CD96 overexpressing CHO-S cells was calculated (see FIG. 1 and Table 15).

[2] = target: T2, CD96 extracellular region with His tag (CD96-His) (human, UniProt P40200 22-519); experiment: ELISA, CD96-His coated
T2 construct: also called CD96-ECD-His; Bio-CD96-His (biotin-labelled form)
T2 sequence: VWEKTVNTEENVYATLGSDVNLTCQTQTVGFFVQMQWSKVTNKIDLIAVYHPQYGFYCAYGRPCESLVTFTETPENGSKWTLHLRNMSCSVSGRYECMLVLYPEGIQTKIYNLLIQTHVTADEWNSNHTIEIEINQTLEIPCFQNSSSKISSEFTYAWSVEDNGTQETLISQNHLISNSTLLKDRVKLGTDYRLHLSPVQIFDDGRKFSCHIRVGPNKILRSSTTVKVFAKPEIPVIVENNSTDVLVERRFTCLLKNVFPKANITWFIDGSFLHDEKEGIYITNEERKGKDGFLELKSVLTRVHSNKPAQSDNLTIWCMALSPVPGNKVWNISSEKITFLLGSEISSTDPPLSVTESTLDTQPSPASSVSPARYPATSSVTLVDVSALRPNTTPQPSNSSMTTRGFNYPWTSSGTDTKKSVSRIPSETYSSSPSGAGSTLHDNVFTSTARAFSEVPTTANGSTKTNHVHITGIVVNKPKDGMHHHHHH
Protocol: The binding capacity of the anti-CD96 antibody was tested by ELISA to determine the binding of the antibody to human CD96 protein. The His-tagged CD96 fusion protein was used to coat the microtiter plate, and the intensity of the signal after adding with the antibody was used for evaluating the binding activity of the antibody and CD96. The specific experimental method is as follows:
CD96-His with the sequence of SEQ ID NO: 4 prepared in Embodiment 1 was diluted to a concentration of 2 μg/ml with PBS buffer (Shanghai Yuanpei Biotechnology Co., Ltd. Cat No. B320), pH 7.4, added to a 96-well microtiter plate (Corning, Cat No. CLS3590-100EA) at a volume of 50 μl/well, and placed in an incubator at 37° C. for 2 hours. After discarding the liquid, 250 μl/well of 5% skim milk (BD, Cat No. 232100) blocking solution diluted with PBS was added, and the plate was incubated at 37° C. for 2.5 hours or at 4° C. overnight (16-18 hours) for blocking. After blocking, the blocking solution was discarded, and the plate was washed 4 times with PBST buffer (pH 7.4 PBS containing 0.05% tween-20). 50 μl/well of different concentrations of the antibodies to be tested (hybridoma purification antibody or humanized antibody) diluted with sample dilution was added, and the plate was incubated in an incubator at 37° C. for 1 hour. […] After washing the plate 4 times with PBST, 50 μl/well of TMB chromogenic substrate (KPL, Cat No. 52-00-03) was added, and the plate was incubated at room temperature for 5-15 minutes, followed by adding 50 μl/well of 1M H₂SO₄ to stop the reaction. The absorption value was read at 450 nm with a NOVOStar microplate reader, and the EC50 value of the binding of CD96 antibody to human CD96 was calculated (see Table 13).

[3] = target: T2, CD96 extracellular region with His tag …; experiment: SPR (Biacore), antibody captured, CD96-ECD-His as mobile phase
From the text: Protein A biosensor chip was used to capture antibodies to be tested, then CD96 antigen was flowed on the surface of the chip, and real time reaction signal was detected by Biacore to obtain the binding and dissociation curve. After the dissociation of each experimental cycle was completed, the biosensor chip was washed and regenerated with a glycine-hydrochloric acid regeneration solution (pH 1.5).

Binder | EC50 [1] [nM] | EC50 [2] [nM] | Kd [3] [nM]
B1 | 0.074 | 0.07 | 1.61
B2 | 0.031 | 0.095 | 3.98
B3 |  |  | 465
B4 | 0.043 | 0.094 | 1.05
B5 | 0.047 | 0.073 | 0.86
B6 | 0.044 | 0.091 | 
B7 | 0.053 | 0.113 | 
B8 | 0.043 | 0.077 | 1.19
B9 | 0.012 | 0.065 | 9.74
B10 | 0.036 | 0.075 | 2.28
B11 | 0.036 | 0.074 | 1.35
B12 | 0.026 | 0.084 | 3.32

Source: patent publication US20200347130A1 (JIANGSU HENGRUI MEDICINE, published 2020)
